According to the nanobody polyreactivity screen of Harvey et al. (2022):

Experiment: yeast display, Sf9 membrane polyspecificity reagent, FACS + sequencing; frameworks hold sequencing errors
Outline: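 In a synthetic yeast display library (Saccharomyces cerevisiae BJ5465), nanobody expression was induced with galactose for 36–48 hours. FACS gates were set low and high (top ~1%) using anti-HA fluorescence for expression and streptavidin fluorescence for binding of the Sf9 membrane reagent. Each polyreactivity label is drawn from the gate of origin.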

Sequence | polyreactivity (PSR sort gate)
QVQLVESGGGLVQAGGSLRLSCAASGSIFRPNAMRWYRQAPGKERELVAAISSGDSTNYADSVKGRFTISRDNAKNTVYLLMNSLKAEDTAVYYCNTDKYSESYRSYEYWGQGTQVTVSS | low polyreactivity
QVQLVESGGGLVQAGGSLRLSCAASGLILYSYAMGWYRQAPGKERELVADISSGGITNYADSVKGRFTISRDNAKNTVYLQMNSLKPEDTAVYYCAADTRTSYYNDDYDYWGQGTQVTVSS | low polyreactivity
QVQLVESGGGLVQAGGSLRLSCAASGRTFYRNAMGWYRQAPGKERELVASIRRNGGSTYYADSVKGRFTISRDNAKNTVYLQMNSLKPEDTAVYYCAARSTRRRIYGYWGQGSQVTVSS | high polyreactivity
QVQLVESGGGLVQAGGSLRLSCAASGTTFRIYSMGWYRQAPGKERELVAGITRRGGSTFYADSVKGRFTISRDTAKNTVYFQMNSLKPEDTAVYYCAARFRGGMDYWGQGTQVTVSS | high polyreactivity
QVQLVESGGCLFQAGGSLRLSCAASGNIFLYYAMGWYRQAPGKERELVADIDSSGASTYYADSVKGRFTISRDNAKNTGYLQMNSLIPEDTAVYDCDKDSNRYSYYSPYDSWGQGTQVTVSS | low polyreactivity
QVQLVESGGGLVQAGGSLRLSCAASGIHFRSNAMGWYRQAPGKERELVAAISGRGGRTYYADSVKGRFTISRDNAKNTVYLQMNSLKPEDTAVYYCARESYLGATYPKAYGPYYYWGQGTQVTVSS | high polyreactivity
QVQLVESGGGLVQAGGSLRLSCAASGLTFGNYAMGSYRQAPGKERELVAAITSGGSTYYADSVKGRFTISRDNAKNTVYLQMNSLKPEDTAVYYCAKRQSQHYRSYLMDYWGQGTQVTVSS | low polyreactivity
QVQLVESGGGLVQAGGSLRLSCAASGSIFLVYAMGWYRQAPGKERELVAAIRISDSTNYADSVKGRFTISRDNAKNTVYLQMNSLKPEDTAVYYCNVDTVGLGGEKGGYYWGQGTQVTVSS | low polyreactivity
QVQLVESGGGLVQAGGSLRLICAASGSTFTPYAMGWYRQEPGKERELVAAIRGSGGRTYYADSVKGRFTISRDNAKNTVYLQMNSLKPEDTAVYYCAASWLYTGWGRYDYWGQGTQVTVSS | high polyreactivity
QVQLVESGGGLVQAGGSLRLSCAASGFTFTKNAMGWYRQAPGKERELVAAISRGGRTYYADSVKGRFTISRDNAKNTVYLQMNSLKPEDTADYYCAKGYASQILVAPRSQYYYWGQGTQVTVSS | high polyreactivity
QVQLVESGGGLVQAGGSLRLRCDASGRIFISYTMGWSRPPPGKERELVAGIDSSGTSTYYADSVKGRFTISRDNAKNTVYLLMNSLKPEDNADYYCNVDGYWKDTSTEMVYWGQGTQVTVSS | low polyreactivity
QVQLVDSGGGLVQAGGSLRLSCAASGRIFRGYAMGWYRQAPGKERELVAAINRGSSTYYADSVKGRFTISRDNAKNTVYLQMNSLKPEDTAVYYCAVKGYLPYTGIFDYWGQGTQVTVSS | high polyreactivity
QVQLVDSGGGLVQAGGSLRLSCSASGSTFSVYAMGWYRQAPGKERELVAAITSGGSTNYADSVKGRFTISRDNAKNTVYLQMNSLKPEDTAVFYCNAYYVLIGYQPHWGYYWGQGTQVTVSS | low polyreactivity
QVQLVESGGGLVQAGGSLRLSCAASGSTLSDNAMGWYRQAPGKERELVARISGDGSTNYADSVKGRFTISRDNAKNTVYLQMNSLKPEDTAVYYCNAGTAGIYYYGKSDYWGQGTQVTVSS | low polyreactivity
QVHLVESGGGLVQAGGSLRLSCAASGSTFYRYAMGWYSQAPGKERELVAAISKRGGSTYYADSVKGRFTISRDNAKNTVYLQMNSLKPEDTAGQYCAADPFDYGGGDDYWGQGTQVTVSS | high polyreactivity
QVQLVESGGGLVQAGGSLRLSCVPTDMGWYRQAPGKERELVATISLSDGNTYYADSVKGRFTISRDNAKNTVYLQMNSLKPEDTAVYYCNALHTWHQTYDYWGQCTQVTVSS | low polyreactivity
QVQLVESGGGLVQAGGSLRLSCAASGSTFGGYAMGWYRPAPGKERELVAAINRSGARTYYADSVKGRFTISRDNAKNTVYLQMNSLKPEDTAVYYCNKAQGSHGAYDYWGQGTQVTVSS | high polyreactivity
QVQLVESGGGLVQAGGSLRLSCAASGYTFRNNAMGWYRQAPGKEREFVAAISRSGARTYYADSVKGRFTISRDNAKNTVYLQMNSLKPEDTAVYYCAARESFEYDSWGQGTQVTVSS | high polyreactivity
QVQLQESGGGLVQAGGSLRLSCAASGSISILQSMGWYRQAPGKERELVAGINWGATTYYADSVKGRLTTSRDYAKNTVYLQLNSLKPEDTGVYYCAFQTYFTYPLLYWGQGTQVNVSS | low polyreactivity
QVQLVESGGGLVQAGGSLRLSCAASGSTFRTYAMGWYRQAPGKERELVAAISYNGGSTYYADSVTGRFTISRDNAKNTVYLQMNILKPEDTEVYYFAKDQTGYWYNRYGYWGQGTQVTVSS | low polyreactivity
QVQLVESGGGLVQAGGSLRLSCAASGITFDRYAMAWYRHAPGKERELVAAITSSGGRTYYADSVKGRFTISRDNAKNTVYLQMNSLKPEDTAVYYCNTPWQNRADSHRDYWGQGTQVTVSS | high polyreactivity
QVQLVESGGGLVQAGGSLRLSWAASGSTFAYNDMGWYRQAPGKERELVASITSGGSTNYADSVKGRFTISRDNAKNTVYLQMNSLKPEDTAVYYCAARVRYRFDYWGQGTQVTVSS | low polyreactivity

Sequence | polyreactivity (PSR sort gate)
QVQLVESGGGLVQAGGSLRLSCAASGFTFENYAMGWYRQAPGKERELVAAITRTGGITYYADSVKGRFTISRDNAKNTVYLQLNSLKPEDTAVYYCDADDTWTRPKNYDRYDYWGQGTQVTVSS | low polyreactivity
QVQLVESGGGLVQAGGSLRLSCAASGSISGINAMGWYRQAPGKERELVAAISRRAGSTYYADSVKGRFTISRDNAKNTVYLQMNSLKPEDTAVYYCAAENFYPYTYYASDYWGQGTQVTVSS | high polyreactivity
QVQLVESGGGLVQAGGRLRLSCADSGRIFLYYAKGWYRQAPGKEPELVAAISGGGGRTYYADSVKGRFTISRDNAKNTVYLQMNSLKPEDTAVYYWAAGVYTGQHEFDYWGQGTQVTVSS | low polyreactivity
QVQLVESGGGLVQAGGSLRLSCAAYGSNFYLYAMGWYRQAPGKERELVAAITRGGTTNYADSVKGRFTISRDNAKNTVYLQMNSLKPEDTAVYYCAKEVTTLLSLYEIVDRDYWGQGTQVTVSS | low polyreactivity
QVQLVESGGGLVQAGGSLRLSCAASGYTFVIYAMGSYRQAPGKERELVAAITTIGGRTYYADSVKGRFTISRDNAKNTVYLQMNSLKPEDTAVYYCAADIRSNRLYDGGYWGLGTQVTVSS | low polyreactivity
QVQLEESGGGLVQAGGSIRLSCAASGFIFYYNAMGWYRQAPGKERELVASIRSGGSTNYADSVKGRFTISRDNAKNTVYLQMNSLKPEDTAVYYCAADISRWSHRSKEMYYWGQGTQVTVSS | low polyreactivity
QVQLVESGGGLVQAGGSLRLSCAASGSIFVSNARVWYRQAPGKERELVAANTSSGSTDYADSVKGRFTISRANAKNTVYLQMNSLKPEDTAVYYCAAESYHTFFLWSLNDSWGQGTQVTVSS | low polyreactivity
QVQLVESGVGLVQAGGSLRLSCAASGRIFRPYAMGWYRQAPGKERELVAAITQSGGITSYADSVKGRFTISRDNAKNTVYLQMNSLKPEDTAVYYCATTSRYTRSHYDWYDYWGQGTQVTVSS | low polyreactivity
QVQLVESGGGLVQAGGSLRLSCAASGRTFSWYAMGWYRQAPGKERELVAAISSSGGSTYYADSVKGRFTISRDNAKNTVYLQMNSLKPEDTAVYYCAVRYYSSLSQRYYSWGQGTQVTVSS | high polyreactivity
QVQLVESGGGLVQAGGSLRLSSAASGSIFYRYAMGWYRQAPGKERELVAVISRGGSTNYADSVKGRFTISRDNAKNTVYLQMNSLKPEDTAVYYCAAGGYSKGDYWGQGTQVTVSS | high polyreactivity
QVQLVESGGCLVQAGGSLRLSCAASGLTFADNAMGWYRQAPGKERELVATISYSGGSTYYADSVKGRFTISRDNAKNTVYLQMNSLKPEDTAVYYCAADGNSTGVYLDGGEGFAYDYWGQGSQVTVSS | low polyreactivity
QVQLVESGGGLVQAGGSLRLSCAASGRIFGYIAMGWYRPAPGKERELVAAISWSGGSTYYADSVKGRFTISRDNAKNTVYLQMNSLKPEDTAVYYCAADSQDGYFYWGQGTQVTVSS | low polyreactivity
QVQLVESGGGLVQAGGSLRLSCAASGSIFRKNAMGWYRQAPGKERELVAAISSGGGGTYYADSVKGRFTISRDNAKNTVYLQMNSLKPEDTAVYYCNKREGKGGNTKYDYWGLGTQVTVSS | low polyreactivity
QVQLVESGGGLVKAGGSLRLSCAASGLTFAINTMGWYRQSRGKERELVAAITGSGGSTYYADSVKGRFTISRDNAKNTVYLQMNSLKPEDSAVYYCAAELLYVQGYAMDYWGQGTQVTVSS | low polyreactivity
QVQLVESGGGLVQAGGSLRLSCAASGSTFNKNAMGWYRQAPGNERELVAVISRSGGSTHYADSVKGRFTISRDNAKNTVYLQMNSLKPEDTAVYYCATPFSYRRRTSASPYLYDYWGQGTQVTVSS | high polyreactivity
QVQLLESGGGLDQAGGSLRISCPASGSIFWSNAMGWYRQAPGKEREFVAALTWSGDNTYFADSVKGRFTISRENAKNTVDLQMNSLKPEDTAVYYCAAVFQNKAVGGVTSIYDCRGQGTQVTVSS | low polyreactivity
QVQLVESGGGLVQAGGSLRLSCAASGSTFFSYAMGWYRQAPGKERELVAAISWIDDGTYYADSVKGRFTISRDNAKNTVYLQMNSLKPEDTAVYYCAATKFWYYGYDYWGQGTQVTVSS | low polyreactivity
QVQLVESGGGLVQAGGSLRLSCAASGRTCWYKAMGWYRQAPGKERELVAPITSGGRTKYADSVKGRFTISRDNAKNTVYLQMNSLKPEDTAVYYCNTYNRRSGTLPKPYDYWGQGTQVTVSS | high polyreactivity
QVQLVESGGGLVQAGGSLRLSCAASGSTFYGYTMGWYRQAPGKERELVAAISWRGGSTYYADSVKGRFTISRDNAKNTVYLQMNSLKPEDTAVYYFAARPYIVTYPWRRYDYWGQGTQVTVSS | high polyreactivity
QVHHVESGGGLVQAGGSLRLSCAASGFTFDLYATVLSRQAPRKERELVAAITWRGGSTYYADSVKGRFAISRDNAKNTVYLQMNSLQPEDTAVYYCAADYVIVDDAWLITVEMDSWGQGTQVTVSS | low polyreactivity
QVQLVESGGGLVQAGGSLRLSCAASGSIINRYAMGWYRQARGKERELVAAITQSGGRTYYADSVKGRFTISRDNAKNTVYLQMNSLKPEDTAVYYCAKAGWPGSYIYYRFRVGYDSWGQGTQVTVSS | high polyreactivity
